These results are taken from patent US10487348B2, “3-alpha-hydroxysteroid dehydrogenase mutants and process for the preparation of ursodeoxycholic acid” (Pharmazell GmbH, priority 2014, dated 2019).

The test system of the series is 3α-HSDH; substrate DHCA. The class given is biochemical, Comamonas testosteroni. The settings on record: purified enzyme variant; for substrate excess inhibition: substrate DHCA.

B1: T188A N: 3α-HSDH mutant T188A with N-terminal hexahistidine tag (protein, UniProt P80702 2-257, looked up, variant T188A)
3-alpha-hydroxysteroid …: SIIVISGCATGIGAATRKVLEAAGHQIVGIDIRDAEVIADLSTAEGRKQAIADVLAKCSKGMDGLVLCAGLGPQTKVLGNVVSVNYFGATELMDAFLPALKKGHQPAAVVISSVASAHLAFDKNPLALALEAGEEAKARAIVEHAGEQGGNLAYAGSKNALTVAVRKRAAAWGEAGVRLNTIAPGAAETPLLQAGLQDPRYGESIAKFVPPMGRRAEPSEMASVIAFLMSPAASYVHGAQIVIDGGIDAVMRPTQF
modifications: N-terminal His6 tag
notes: 3α-HSDH mutant T188A with N-terminal hexahistidine tag
For B1, the “DHCA substrate concentration at maximum specific activity” value (“DHCA substrate concentration” for short) amounted to 0.5 mM and the substrate excess inhibition result is listed as “pronounced substrate excess inhibition”.

B2: L68A/T188A N: 3α-HSDH dual mutant L68A/T188A with N-terminal hexahistidine tag (protein, UniProt P80702 2-257, looked up, variant L68A T188A)
3-alpha-hydroxysteroid …: SIIVISGCATGIGAATRKVLEAAGHQIVGIDIRDAEVIADLSTAEGRKQAIADVLAKCSKGMDGLVACAGLGPQTKVLGNVVSVNYFGATELMDAFLPALKKGHQPAAVVISSVASAHLAFDKNPLALALEAGEEAKARAIVEHAGEQGGNLAYAGSKNALTVAVRKRAAAWGEAGVRLNTIAPGAAETPLLQAGLQDPRYGESIAKFVPPMGRRAEPSEMASVIAFLMSPAASYVHGAQIVIDGGIDAVMRPTQF
modifications: N-terminal His6 tag
notes: 3α-HSDH dual mutant L68A/T188A with N-terminal hexahistidine tag
Consider B2, for which the “DHCA substrate concentration” value is on record as 0.5 mM and the substrate excess inhibition entry is recorded as “less pronounced substrate excess inhibition”.

B3: L68A/T188S N: 3α-HSDH dual mutant L68A/T188S with N-terminal hexahistidine tag (protein, UniProt P80702 2-257, looked up, variant L68A T188S)
3-alpha-hydroxysteroid …: SIIVISGCATGIGAATRKVLEAAGHQIVGIDIRDAEVIADLSTAEGRKQAIADVLAKCSKGMDGLVACAGLGPQTKVLGNVVSVNYFGATELMDAFLPALKKGHQPAAVVISSVASAHLAFDKNPLALALEAGEEAKARAIVEHAGEQGGNLAYAGSKNALTVAVRKRAAAWGEAGVRLNTIAPGASETPLLQAGLQDPRYGESIAKFVPPMGRRAEPSEMASVIAFLMSPAASYVHGAQIVIDGGIDAVMRPTQF
modifications: N-terminal His6 tag
notes: 3α-HSDH dual mutant L68A/T188S with N-terminal hexahistidine tag
Consider B3, for which the “DHCA substrate concentration” value is listed as 0.5 mM and the substrate excess inhibition entry is on record as “pronounced substrate excess inhibition”.

B4: T188S N: 3α-HSDH mutant T188S with N-terminal hexahistidine tag (protein, UniProt P80702 2-257, looked up, variant T188S)
3-alpha-hydroxysteroid …: SIIVISGCATGIGAATRKVLEAAGHQIVGIDIRDAEVIADLSTAEGRKQAIADVLAKCSKGMDGLVLCAGLGPQTKVLGNVVSVNYFGATELMDAFLPALKKGHQPAAVVISSVASAHLAFDKNPLALALEAGEEAKARAIVEHAGEQGGNLAYAGSKNALTVAVRKRAAAWGEAGVRLNTIAPGASETPLLQAGLQDPRYGESIAKFVPPMGRRAEPSEMASVIAFLMSPAASYVHGAQIVIDGGIDAVMRPTQF
modifications: N-terminal His6 tag
notes: 3α-HSDH mutant T188S with N-terminal hexahistidine tag
With B4, the “DHCA substrate concentration” value is on record as 0.5 mM and the substrate excess inhibition result is on record as “substrate excess inhibition is observed”.

B5: L68A N: 3α-HSDH mutant L68A with N-terminal hexahistidine tag (protein, UniProt P80702 2-257, looked up, variant L68A)
3-alpha-hydroxysteroid …: SIIVISGCATGIGAATRKVLEAAGHQIVGIDIRDAEVIADLSTAEGRKQAIADVLAKCSKGMDGLVACAGLGPQTKVLGNVVSVNYFGATELMDAFLPALKKGHQPAAVVISSVASAHLAFDKNPLALALEAGEEAKARAIVEHAGEQGGNLAYAGSKNALTVAVRKRAAAWGEAGVRLNTIAPGATETPLLQAGLQDPRYGESIAKFVPPMGRRAEPSEMASVIAFLMSPAASYVHGAQIVIDGGIDAVMRPTQF
modifications: N-terminal His6 tag
notes: 3α-HSDH mutant L68A with N-terminal hexahistidine tag
For the molecule B5, the “DHCA substrate concentration” value amounted to 0.1 mM and the substrate excess inhibition entry is “pronounced substrate excess inhibition”.
